B1: N^α1-[(4S)-4-carboxy-4-[[(4S)-4-carboxy-4-(19-carboxynonadecanoylamino)butanoyl]amino]butanoyl]-[Glu14,Arg17,Pro21,Pro27,Pro37]-h-amylin (peptide)
peptide: {C20 diacid-γGlu-γGlu}-KCNTATCATQRLAEFLRHSSPNFGAIPSSTNVGSNTP-NH2
modifications: disulfide 2-7
SMILES: CC[C@H](C)[C@H](NC(=O)[C@H](C)NC(=O)CNC(=O)[C@H](Cc1ccccc1)NC(=O)[C@H](CC(N)=O)NC(=O)[C@@H]1CCCN1C(=O)[C@H](CO)NC(=O)[C@H](CO)NC(=O)[C@H](Cc1c[nH]cn1)NC(=O)[C@H](CCCNC(=N)N)NC(=O)[C@H](CC(C)C)NC(=O)[C@H](Cc1ccccc1)NC(=O)[C@H](CCC(=O)O)NC(=O)[C@H](C)NC(=O)[C@H](CC(C)C)NC(=O)[C@H](CCCNC(=N)N)NC(=O)[C@H](CCC(N)=O)NC(=O)[C@@H](NC(=O)[C@H](C)NC(=O)[C@@H]1CSSC[C@H](NC(=O)[C@H](CCCCN)NC(=O)CC[C@H](NC(=O)CC[C@H](NC(=O)CCCCCCCCCCCCCCCCCCC(=O)O)C(=O)O)C(=O)O)C(=O)N[C@@H](CC(N)=O)C(=O)N[C@@H]([C@@H](C)O)C(=O)N[C@@H](C)C(=O)N[C@@H]([C@@H](C)O)C(=O)N1)[C@@H](C)O)C(=O)N1CCC[C@H]1C(=O)N[C@@H](CO)C(=O)N[C@@H](CO)C(=O)N[C@H](C(=O)N[C@@H](CC(N)=O)C(=O)N[C@H](C(=O)NCC(=O)N[C@@H](CO)C(=O)N[C@@H](CC(N)=O)C(=O)N[C@H](C(=O)N1CCC[C@H]1C(N)=O)[C@@H](C)O)C(C)C)[C@@H](C)O
notes: also called compound 14
B2: N^ε1-[(4S)-4-carboxy-4-[[(4S)-4-carboxy-4-(19-carboxynonadecanoylamino)butanoyl]amino]butanoyl]-[Glu14,Arg17,Pro21,Pro27,Pro37]-h-amylin (peptide)
peptide: K([γGlu-γGlu-C20 diacid])CNTATCATQRLAEFLRHSSPNFGAIPSSTNVGSNTP-NH2
modifications: disulfide 2-7; N-terminus assumed
SMILES: CC[C@H](C)[C@H](NC(=O)[C@H](C)NC(=O)CNC(=O)[C@H](Cc1ccccc1)NC(=O)[C@H](CC(N)=O)NC(=O)[C@@H]1CCCN1C(=O)[C@H](CO)NC(=O)[C@H](CO)NC(=O)[C@H](Cc1c[nH]cn1)NC(=O)[C@H](CCCNC(=N)N)NC(=O)[C@H](CC(C)C)NC(=O)[C@H](Cc1ccccc1)NC(=O)[C@H](CCC(=O)O)NC(=O)[C@H](C)NC(=O)[C@H](CC(C)C)NC(=O)[C@H](CCCNC(=N)N)NC(=O)[C@H](CCC(N)=O)NC(=O)[C@@H](NC(=O)[C@H](C)NC(=O)[C@@H]1CSSC[C@H](NC(=O)[C@@H](N)CCCCNC(=O)CC[C@H](NC(=O)CC[C@H](NC(=O)CCCCCCCCCCCCCCCCCCC(=O)O)C(=O)O)C(=O)O)C(=O)N[C@@H](CC(N)=O)C(=O)N[C@@H]([C@@H](C)O)C(=O)N[C@@H](C)C(=O)N[C@@H]([C@@H](C)O)C(=O)N1)[C@@H](C)O)C(=O)N1CCC[C@H]1C(=O)N[C@@H](CO)C(=O)N[C@@H](CO)C(=O)N[C@H](C(=O)N[C@@H](CC(N)=O)C(=O)N[C@H](C(=O)NCC(=O)N[C@@H](CO)C(=O)N[C@@H](CC(N)=O)C(=O)N[C@H](C(=O)N1CCC[C@H]1C(N)=O)[C@@H](C)O)C(C)C)[C@@H](C)O
notes: also called compound 13
B3: N^ε1-[(4S)--4-carboxy-4-(19-carboxynonadecanoylamino)butanoyl]-[Glu14,Arg17,Pro21,Pro27,Pro37]-h-amylin (peptide)
peptide: K([γGlu-C20 diacid])CNTATCATQRLAEFLRHSSPNFGAIPSSTNVGSNTP-NH2
modifications: disulfide 2-7; N-terminus assumed
SMILES: CC[C@H](C)[C@H](NC(=O)[C@H](C)NC(=O)CNC(=O)[C@H](Cc1ccccc1)NC(=O)[C@H](CC(N)=O)NC(=O)[C@@H]1CCCN1C(=O)[C@H](CO)NC(=O)[C@H](CO)NC(=O)[C@H](Cc1c[nH]cn1)NC(=O)[C@H](CCCNC(=N)N)NC(=O)[C@H](CC(C)C)NC(=O)[C@H](Cc1ccccc1)NC(=O)[C@H](CCC(=O)O)NC(=O)[C@H](C)NC(=O)[C@H](CC(C)C)NC(=O)[C@H](CCCNC(=N)N)NC(=O)[C@H](CCC(N)=O)NC(=O)[C@@H](NC(=O)[C@H](C)NC(=O)[C@@H]1CSSC[C@H](NC(=O)[C@@H](N)CCCCNC(=O)CC[C@H](NC(=O)CCCCCCCCCCCCCCCCCCC(=O)O)C(=O)O)C(=O)N[C@@H](CC(N)=O)C(=O)N[C@@H]([C@@H](C)O)C(=O)N[C@@H](C)C(=O)N[C@@H]([C@@H](C)O)C(=O)N1)[C@@H](C)O)C(=O)N1CCC[C@H]1C(=O)N[C@@H](CO)C(=O)N[C@@H](CO)C(=O)N[C@H](C(=O)N[C@@H](CC(N)=O)C(=O)N[C@H](C(=O)NCC(=O)N[C@@H](CO)C(=O)N[C@@H](CC(N)=O)C(=O)N[C@H](C(=O)N1CCC[C@H]1C(N)=O)[C@@H](C)O)C(C)C)[C@@H](C)O
notes: also called compound 12
B4: N^α1N^α1-[(4S)-4-carboxy-4-(19-carboxynonadecanoylamino)butanoyl]-[Glu14,Arg17,Pro21,Pro27,Glu35]-h-amylin (peptide)
peptide: {C20 diacid-γGlu}-KCNTATCATQRLAEFLRHSSPNFGAIPSSTNVGSETY-NH2
modifications: disulfide 2-7
SMILES: CC[C@H](C)[C@H](NC(=O)[C@H](C)NC(=O)CNC(=O)[C@H](Cc1ccccc1)NC(=O)[C@H](CC(N)=O)NC(=O)[C@@H]1CCCN1C(=O)[C@H](CO)NC(=O)[C@H](CO)NC(=O)[C@H](Cc1c[nH]cn1)NC(=O)[C@H](CCCNC(=N)N)NC(=O)[C@H](CC(C)C)NC(=O)[C@H](Cc1ccccc1)NC(=O)[C@H](CCC(=O)O)NC(=O)[C@H](C)NC(=O)[C@H](CC(C)C)NC(=O)[C@H](CCCNC(=N)N)NC(=O)[C@H](CCC(N)=O)NC(=O)[C@@H](NC(=O)[C@H](C)NC(=O)[C@@H]1CSSC[C@H](NC(=O)[C@H](CCCCN)NC(=O)CC[C@H](NC(=O)CCCCCCCCCCCCCCCCCCC(=O)O)C(=O)O)C(=O)N[C@@H](CC(N)=O)C(=O)N[C@@H]([C@@H](C)O)C(=O)N[C@@H](C)C(=O)N[C@@H]([C@@H](C)O)C(=O)N1)[C@@H](C)O)C(=O)N1CCC[C@H]1C(=O)N[C@@H](CO)C(=O)N[C@@H](CO)C(=O)N[C@H](C(=O)N[C@@H](CC(N)=O)C(=O)N[C@H](C(=O)NCC(=O)N[C@@H](CO)C(=O)N[C@@H](CCC(=O)O)C(=O)N[C@H](C(=O)N[C@@H](Cc1ccc(O)cc1)C(N)=O)[C@@H](C)O)C(C)C)[C@@H](C)O
notes: also called compound 22
B5: N^α1 N^α1-[(4S)-4-carboxy-4-[[(4S)-4-carboxy-4-(19-carboxynonadecanoylamino)butanoyl]amino]butanoyl]-[Glu14,Arg17,Pro21,Pro27]-h-amylin (peptide)
peptide: {C20 diacid-γGlu-γGlu}-KCNTATCATQRLAEFLRHSSPNFGAIPSSTNVGSNTY-NH2
modifications: disulfide 2-7
SMILES: CC[C@H](C)[C@H](NC(=O)[C@H](C)NC(=O)CNC(=O)[C@H](Cc1ccccc1)NC(=O)[C@H](CC(N)=O)NC(=O)[C@@H]1CCCN1C(=O)[C@H](CO)NC(=O)[C@H](CO)NC(=O)[C@H](Cc1c[nH]cn1)NC(=O)[C@H](CCCNC(=N)N)NC(=O)[C@H](CC(C)C)NC(=O)[C@H](Cc1ccccc1)NC(=O)[C@H](CCC(=O)O)NC(=O)[C@H](C)NC(=O)[C@H](CC(C)C)NC(=O)[C@H](CCCNC(=N)N)NC(=O)[C@H](CCC(N)=O)NC(=O)[C@@H](NC(=O)[C@H](C)NC(=O)[C@@H]1CSSC[C@H](NC(=O)[C@H](CCCCN)NC(=O)CC[C@H](NC(=O)CC[C@H](NC(=O)CCCCCCCCCCCCCCCCCCC(=O)O)C(=O)O)C(=O)O)C(=O)N[C@@H](CC(N)=O)C(=O)N[C@@H]([C@@H](C)O)C(=O)N[C@@H](C)C(=O)N[C@@H]([C@@H](C)O)C(=O)N1)[C@@H](C)O)C(=O)N1CCC[C@H]1C(=O)N[C@@H](CO)C(=O)N[C@@H](CO)C(=O)N[C@H](C(=O)N[C@@H](CC(N)=O)C(=O)N[C@H](C(=O)NCC(=O)N[C@@H](CO)C(=O)N[C@@H](CC(N)=O)C(=O)N[C@H](C(=O)N[C@@H](Cc1ccc(O)cc1)C(N)=O)[C@@H](C)O)C(C)C)[C@@H](C)O
notes: also called compound 15

Numbered stars: 1 amine (or outer) side, 2 acyl side, 3 side chain; on linkers, the order of the positions; unused ones are H or OH. Bridge positions count the residues as written; N and C are the ends. Side chains are listed from the residue outwards. Ends that are not written are not given here. * marks the point of attachment. C20 diacid = O=C(O)CCCCCCCCCCCCCCCCCCC(=O)*; γGlu = O=C(O)[C@H](CCC(=O)[*:2])N[*:1]

One may read the IC50 as the concentration at which inhibition is half-maximal.

One test addresses T1, human amylin receptor (amylin 3(a) receptor: human calcitonin receptor plus RAMP-3) (human, UniProt P30988 25-474; O60896 24-148, limits assumed).
T1 sequence (looked up) 1: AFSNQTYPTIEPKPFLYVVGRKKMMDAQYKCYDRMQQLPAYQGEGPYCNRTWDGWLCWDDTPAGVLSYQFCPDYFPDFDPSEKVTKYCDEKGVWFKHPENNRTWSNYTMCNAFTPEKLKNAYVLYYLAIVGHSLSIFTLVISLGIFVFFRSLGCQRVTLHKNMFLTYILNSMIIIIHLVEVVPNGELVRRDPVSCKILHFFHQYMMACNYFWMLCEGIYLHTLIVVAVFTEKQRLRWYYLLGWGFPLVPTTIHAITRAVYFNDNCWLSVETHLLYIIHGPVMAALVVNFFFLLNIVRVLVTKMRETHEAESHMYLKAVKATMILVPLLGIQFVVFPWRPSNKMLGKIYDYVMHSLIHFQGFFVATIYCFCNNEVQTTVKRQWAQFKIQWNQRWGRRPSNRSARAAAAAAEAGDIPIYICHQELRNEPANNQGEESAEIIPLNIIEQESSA
T1 sequence (looked up) 2: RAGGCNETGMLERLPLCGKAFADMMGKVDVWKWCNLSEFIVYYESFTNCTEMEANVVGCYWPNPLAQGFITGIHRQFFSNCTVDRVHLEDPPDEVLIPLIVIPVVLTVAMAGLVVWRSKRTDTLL
The test can be described thus: cell-based or functional assay.
In the case of B1, the “hAmylin-R funct. EC50” value was found to be 146 pM.
On to B2, for which the “hAmylin-R funct. EC50” value came out at 213 pM.
Turning to B3, the “hAmylin-R funct. EC50” value came out at 101 pM.
Regarding B4, the “hAmylin-R funct. EC50” value worked out at 270 pM.
For B5, the “hAmylin-R funct. EC50” value is 386 pM.

In a further test the target is T2, human calcitonin receptor (human, UniProt P30988 25-474).
T2 sequence (looked up): T1 sequence (looked up) 1
Description: cell-based or functional assay.
In the case of B1, the “Ratio hCT/hAmylin funct. (hCTR EC50 against hAmylin-R EC50)” value is 1.6 and the “hCTR funct. EC50” value came out at 238 pM.
In the case of B2, the “Ratio hCT/hAmylin funct. (hCTR EC50 against hAmylin-R EC50)” value was 2.2 and the “hCTR funct. EC50” value was 470 pM.
Regarding B3, the “Ratio hCT/hAmylin funct. (hCTR EC50 against hAmylin-R EC50)” value was 1.8 and the “hCTR funct. EC50” value was 185 pM.
Consider B4, for which the “Ratio hCT/hAmylin funct. (hCTR EC50 against hAmylin-R EC50)” value was 3.8 and the “hCTR funct. EC50” value stood at 1030 pM.
The like results for B5 were, in that order, 8.9 and 3430 pM.

A further test addresses T1, human amylin receptor (amylin 3(a) …). Description: SPA competition binding, membranes of Amylin 3(a)/CRE-luc BHK cells, displacement of 125I-rat amylin (Assay V). Here is the method:
The binding assay was performed using scintillation proximity assay (SPA) beads (RPNQ0001) from PerkinElmer and cell membranes from the Amylin 3(a)/CRE-luc cells (as described in Assay (II)) were used. Membranes were prepared in the following way; the cells were rinsed with PBS and incubated with Versene for approximately 5 min before harvesting. The cells were flushed with PBS and the cell-suspension was centrifuged for 5 min at 1000 rpm. Cells were homogenized (ultrathurrax) in a buffer containing 20 mM Na-HEPES and 10 mM EDTA (pH 7.4) and centrifuged at 20.000 rpm for 15 min. The resulting pellet was resuspended, homogenized and centrifuged (20.000 rpm, 15 min) in a buffer containing 20 mM Na-HEPES and 0.1 mM EDTA (pH 7.4, buffer 2). The resulting pellet was resuspended in buffer 2 and protein concentration was measured (BCA protein Assay, Pierce). The homogenate was kept cold during the whole procedure. The membranes were kept at −80° C. until use. The assay was performed in a 384 well Optiplate (PerkinElmer) in a total volume of 40 ul. Membranes were mixed with SPA beads. Final concentration of membranes 35 ng/μL final and SPA beads was 0.05 mg/well. Test-compounds were dissolved in DMSO and further diluted in assay buffer (50 mM Hepes, pH 7.4, 1 mM CaCl2, 5 mM MgCl₂, 0.1% OA and 0.02% Tween20). […] The final mixture was incubated with shaking at 400 rpm for 120 min at 25° C. prior to centrifugation (1500 rpm, 10 min). Samples were analyzed on TopCounter™ (Packard). The IC₅₀ was calculated using (one site binding competition analysis) GraphPad Prism5 as a measure of receptor affinity.
For orientation: In a radioligand displacement assay an active substance lowers the binding of a labelled ligand.
Regarding B1, the IC50 amounted to 196 pM.
As for B2, the IC50 turned out to be 264 pM.
Take B3: the 50% inhibitory concentration (IC50) worked out at 142 pM.
In the case of B4, the 50% inhibitory concentration (IC50) is 794 pM.
On the same count and under the same terms, the same measure for B5: 597 pM.
